Source: the supplement of paper PMC10567573
± gives the standard deviation.

Assay: protein stability index of a GFP-peptide fusion (GPS, HEK-293T) (PSI 1-6); higher = more stable
[1] = treatment: DMSO, c terminus: native
[2] = treatment: MLN4924 1 uM, 8 h, c terminus: native
[3] = treatment: DMSO, c terminus: a fixed tail appended
[4] = treatment: MLN4924 1 uM, 8 h, c terminus: a fixed tail appended
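Further: 24-mer peptide tiles fused after GFP, lentivirally expressed, FACS-sorted into six equal bins by GFP/DsRed ratio, decoded by Illumina sequencing, PSI is the read-weighted mean bin number.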

Row | Sequence | protein stability index [1] | protein stability index [2] | protein stability index [3] | protein stability index [4]
1 | IANCKLFRLQLQQGLFRIRVHSP [GAN] | 3.45 ± 0.51 | 2.6 ± 0.38 |  | 
2 | MAVAQQLRAESDFEQLPDDVAISA [NCF4] |  |  | 4.89 ± 0.27 | 4.88 ± 0.19
3 | FSEPSFITESYQTLHPISSEELLS [ETS1] |  |  | 2.77 ± 0.4 | 3.28 ± 0.41
4 | FLVTMANIGINGNHSLETCETTLF [PTGFR] |  |  | 2.88 ± 0.88 | 2.5 ± 1.1
5 | KFSNIVDKFVIVDCRYPYEYEGGH [CDC25B] |  |  | 2.47 ± 0.16 | 2.25 ± 0.62
6 | WPGASGSAQSLDRLGIMGAGLGA [ATP23] | 2.55 ± 0.26 | 2.43 ± 0.37 |  | 
7 | PICVQIPWDKNPEALAKWAEGRTG [CRY1] |  |  | 3.51 ± 0.35 | 3.6 ± 0.24
8 | CLELVSCFVLFSLTHTHTHTPNHR [ANKRD44] |  |  | 2.7 ± 0.081 | 3.55 ± 0.097
9 | PWSLFDVLVEKYGWPHEDAAQFTD [SRPK2] |  |  | 2.61 ± 0.28 | 2.88 ± 0.51
10 | GFPGERTYNTKVYKMFASRRKQRY [LOXL2] |  |  | 2.72 ± 0.42 | 2.98 ± 0.51
11 | REDSKEAEKSGEATDGARPQALPE [CHGA] |  |  | 5.64 ± 0.066 | 5.64 ± 0.17
12 | ASNWSTTGFGQGQGYTINVPWNQV [HDAC6] |  |  | 2.14 ± 0.47 | 2.22 ± 0.43
13 | VTSVSIELEKNFSNFPRQYFALRK [TRIM39] |  |  | 2.47 ± 0.25 | 2.5 ± 0.15
14 | QQLLPPFPSLHQSLPQNQCYMATT [EHMT1] |  |  | 3.29 ± 0.13 | 3.16 ± 0.17
15 | ILSGKFTILNVRDPTGASIALFTA [PTPN9] |  |  | 2.84 ± 0.73 | 3.19 ± 0.74
16 | ELQQELSLKDQERVAEVSRVRVEL [LRRC45] |  |  | 3.5 ± 0.17 | 3.78 ± 0.24
17 | GMRDADYIAAFLHVLLPVALEFQP [HDAC6] |  |  | 3.02 ± 0.47 | 2.96 ± 0.42
18 | PLCMAVLTTASIIQLGVTPPGYSA [SLC6A17] |  |  | 3.14 ± 0.94 | 2.94 ± 0.4
19 | MGREKCHQYWPAERSARYQYFVVD [PTPRD] |  |  | 2.3 ± 0.34 | 2.33 ± 0.14
20 | GLQDTITAELVVIEDAAEPKEPAP [PALM] |  |  | 5.06 ± 0.19 | 5.1 ± 0.18
21 | EVLRMCVAVKKKLQLYFWKDREFH [VPS39] |  |  | 2.49 ± 0.34 | 2.55 ± 0.34
22 | PANTQINDIRIFLEKVLEENAQKK [VPS39] |  |  | 3.73 ± 0.22 | 3.61 ± 0.36
23 | LELSCDKFPPEEELQREWLGNREA [CPN1] |  |  | 4.95 ± 0.25 | 5.11 ± 0.16

Row | Sequence | protein stability index [1] | protein stability index [2] | protein stability index [3] | protein stability index [4]
24 | GSLDLVPGGLTLEEHSLEQVQSMV [SPDEF] |  |  | 4.35 ± 0.38 | 4.66 ± 0.21
25 | YNSSRFGEGVERELFVREPTGRLP [MYORG] |  |  | 3.62 ± 0.22 | 3.73 ± 0.43
26 | YLTVVFEHDAWFIFFMAAFAFSNG [SLC29A1] |  |  | 3.18 ± 0.41 | 2.92 ± 0.59
27 | KEEREDTPIQLQELLALETALGGQ [TCAP] |  |  | 5.17 ± 0.24 | 5.04 ± 0.14
28 | KRRRKSCQACRFMKCLKVGMLKEG [ESRRG] |  |  | 2.67 ± 0.2 | 2.78 ± 0.25
29 | AAGQRSRPSTYYELLGVHPGASTE [DNAJC4] |  |  | 3.58 ± 0.32 | 3.71 ± 0.23
30 | FAFSNGYLASLCMCFGPKKVKPAE [SLC29A1] |  |  | 2 ± 0.36 | 2.34 ± 0.21
31 | GENSDGCYEHFAELDIPQSVQQNG [CLPTM1] |  |  | 5 ± 0.33 | 5.01 ± 0.32
32 | YFATFYSCTPRMNRRMVGPDVIPL [FAM189A2] |  |  | 2.72 ± 0.27 | 2.54 ± 0.55
33 | HLADLVSYSIQKVIGFAKMIPGFR [VDR] |  |  | 4.2 ± 0.43 | 4.18 ± 0.25
34 | PRMNEVYTRLGEMNNAVRNLQELL [CEP70] |  |  | 3.78 ± 0.18 | 3.86 ± 0.23
35 | IQPGPFRAVLKYLYTGELDENERD [RHOBTB2] |  |  | 3.37 ± 0.53 | 3.43 ± 0.25
36 | DSPSRSPSKVEVTEKTTTVLSESS [C2CD2L] |  |  | 5.59 ± 0.24 | 5.38 ± 0.19
37 | ERRQTLNLISLLALRVLAEQNIIP [TENT5C] |  |  | 2.26 ± 0.88 | 2.15 ± 0.24
38 | FAQRTFDYELLQMLQIVVGVRDSG [PCDHGC5] |  |  | 3.01 ± 0.53 | 2.74 ± 0.84
39 | RYVYRFVCDLQSLLGYTPEELHAM [ETS1] |  |  | 2.69 ± 0.65 | 2.5 ± 0.5
40 | RAQEREQIKALNNKFASFIDKVRF [KRT71] |  |  | 2.1 ± 0.11 | 2.2 ± 0.3
41 | EQEDPADYCKGGYHPVKIGDLFNG [SRPK2] |  |  | 3.9 ± 0.32 | 3.98 ± 0.47
42 | PEPPPVSFQPYHPLHFRGSNGMS [TENT5D] | 3.77 ± 0.29 | 3.91 ± 0.22 |  | 
43 | VPAQKFSALTFLRVDQDKDKDCSL [SMOC2] |  |  | 4.19 ± 0.3 | 4.52 ± 0.31
44 | FKHPVIGVHVRRTDKVGTEAAFHP [FUT8] |  |  | 2.98 ± 0.31 | 3.13 ± 0.23
45 | IENLAKANPQYTVYSQASTMSIPV [PPP2R5C] |  |  | 2.8 ± 0.22 | 2.65 ± 0.25
46 | AWLEGRIRQEFDKLREFLRVEEQA [TRIM35] |  |  | 2.81 ± 0.4 | 2.94 ± 0.5

Row | Sequence | protein stability index [1] | protein stability index [2] | protein stability index [3] | protein stability index [4]
47 | EKRSRGQVLFDKVCEHLNLLEKDY [EPB41L3] |  |  | 2.87 ± 0.46 | 3.01 ± 0.62
48 | LKPEKSYSFVLTNRGNSAGGLQHR [PTPRD] |  |  | 3.08 ± 0.53 | 3.27 ± 0.23
49 | APRFSFNDPSGSEEADFLSAETGS [IRX6] |  |  | 5.36 ± 0.14 | 5.33 ± 0.24
50 | DCAGSPQKPLCASDGRTFLSRCEF [SMOC2] |  |  | 3.05 ± 0.48 | 3.27 ± 0.36
51 | NLKQLRKRGSIPTSLTALSLASAS [PPFIA4] |  |  | 3 ± 0.15 | 3.09 ± 0.24
52 | GAKMTERGSVARPTQGPETPRSPE [PXN] |  |  | 5.59 ± 0.13 | 5.38 ± 0.26
53 | AQVLLAMHANVEDRGIKGDITPLM [ANKRD17] |  |  | 2.99 ± 0.093 | 3.04 ± 0.13
54 | QVPEEMSRCRNSYTEQELKPLTLE [DLC1] |  |  | 4.48 ± 0.26 | 4.46 ± 0.29
55 | SDGRTFLSRCEFQRAKCKDPQLEI [SMOC2] |  |  | 2.95 ± 0.42 | 2.93 ± 0.33
56 | IVDFLTHHAQTSKTERINALELLG [FEM1C] |  |  | 2.09 ± 0.14 | 2.18 ± 0.23
57 | EDDKLVVECVMKGVTSTRVYERA [FABP4] | 3.03 ± 0.29 | 3.75 ± 0.42 |  | 
58 | LAIDAIHQLGFIHRDIKPDNLLLD [STK38L] |  |  | 2.23 ± 0.35 | 2.04 ± 0.31
59 | DSLLVVLDMDEGTLSFIVDGQYLG [SPSB4] |  |  | 2.52 ± 0.53 | 2.6 ± 0.69
60 | KGNTALHDCAESGSLDIMKMLLMY [FEM1C] |  |  | 1.97 ± 0.22 | 1.96 ± 0.34
61 | WLYYYAYKDFLWFFSKRFKSAAML [SOAT1] |  |  | 2.15 ± 0.34 | 2.29 ± 0.44
62 | MSRSGDRTSTFDPSHSDNLLHGLN [KLHL14] |  |  | 4.13 ± 0.24 | 4.09 ± 0.26
63 | GELLLDVAWHPVRPIIASISSGVV [RBBP5] |  |  | 2.3 ± 0.54 | 2.42 ± 0.59
64 | IRESRLFGAVVRWAEAECQRQQLP [BTBD1] |  |  | 2.5 ± 0.16 | 2.46 ± 0.13
65 | SPVTTSPTAATTQNPVLSKLLMAD [LCOR] |  |  | 4.536 ± 0.031 | 4.44 ± 0.081
66 | FPAEQYYRFHEHWRFVLQRLVFLA [TSN] |  |  | 2.44 ± 0.42 | 2.22 ± 0.27
67 | QDIAQEISEAFSQRVGFGDDFDED [CHMP4C] |  |  | 5.62 ± 0.21 | 5.5 ± 0.18
68 | EAQLSLIRDIRRRGKNKMAAQNCR [NFE2L1] |  |  | 3.61 ± 0.35 | 3.58 ± 0.22
69 | TVLTRHSQPATPTPLQSRTSIVQA [PDLIM7] |  |  | 3.77 ± 0.093 | 3.8 ± 0.28

Row | Sequence | protein stability index [1] | protein stability index [2] | protein stability index [3] | protein stability index [4]
70 | QGGELVVAYPYDLVRSPWKTQEHT [CPXM2] |  |  | 2.58 ± 0.21 | 2.15 ± 0.25
71 | GAGRRRRAGGPPRPMSEPGAGAGS [SMAD6] |  |  | 5.22 ± 0.41 | 5.21 ± 0.14
72 | FRIIDSDHSGFISLDEFRQTWKLF [PPEF2] |  |  | 2.97 ± 1 | 2.37 ± 0.48
73 | WVGTGLAAALAGLVGLATAAFGHV [CPOX] |  |  | 2.13 ± 0.37 | 2.16 ± 0.3
74 | TGRHYWEVDVQEAGAGWWVGAAYA [TRIM14] |  |  | 2.62 ± 0.8 | 2.58 ± 0.82
75 | EERFRPLTFHGLILRSQLVTLLVR [CLCN6] |  |  | 2.79 ± 0.63 | 2.51 ± 0.36
76 | QIQKYTDCLQFYVNSTLKELRRLF [RTN1] |  |  | 2.73 ± 0.37 | 2.55 ± 0.31
77 | NVLSDLYAMGITECDNMLMLLSVS [SEPHS2] |  |  | 2.93 ± 0.55 | 2.71 ± 0.42
78 | LQMEVCRLKKEEEDRIVTQNRVFA [CEP70] |  |  | 3.98 ± 0.31 | 4.01 ± 0.055
79 | PYDLHLRSQSLTMQDELNAVFHN [NEUROD6] | 3.44 ± 0.22 | 3.71 ± 0.15 |  | 
80 | IHFIAVAVCLLGVGTMVGADILAG [SLC35F2] |  |  | 2.8 ± 0.18 | 3.31 ± 0.45
81 | SPEPPSLYGALNPQYEFKEAAGSF [IRX6] |  |  | 3.47 ± 0.24 | 3.6 ± 0.22
82 | QALLIRERILGPSHPDTSYYIRYR [FEM1A] |  |  | 2.31 ± 0.2 | 2.56 ± 0.33
83 | YSSGEFSSGRKWGDDAPKEEVDTG [INTS4] |  |  | 3.1 ± 0.48 | 3.97 ± 0.56
84 | EELAYLKKNHEEEMKEFSSQLAGQ [KRT15] |  |  | 5.22 ± 0.41 | 5.05 ± 0.28
85 | LVWLVRELVKSGVLGADGVCMTFM [INTS3] |  |  | 2.17 ± 0.54 | 2.22 ± 0.84
86 | ILIIISVIVQIKQPRKKYVQRKSD [NETO1] |  |  | 2.86 ± 0.64 | 2.52 ± 0.36
87 | MCYRVRWEEAAPGRAVEHAMFLGD [MYORG] |  |  | 2.27 ± 0.18 | 2.34 ± 0.47
88 | VYLSPRDDGYSTKDSYSSRDYPSS [RBMX] |  |  | 3.21 ± 0.27 | 3.38 ± 0.43
89 | ASWMYQLQHGDQLSICFTCFKAAF [TEX19] |  |  | 2.59 ± 0.42 | 2.51 ± 0.53
